Source: the DeepSol protein solubility set

test: soluble on expression in E. coli; label from the status in PepcDB or PDB records

Question: Which “soluble on expression in E. coli” value does the source give for “MSDNLSARWHRILDMTNRETSDDVVIARSSFDDFSQSTPWRKFEISCGNRSFFVNPGWLAELSPYFADELYVRKPNVQRYVIDQATPDEVLEFLRCITFCPMRKPLTVKNVSLVLTFANRFEMRPVQARCENFIAQNATSLSRDKTKLFQVTCAMSQCDPNSSTMSVLVDKLAGIKDDELSRLHFAEMPGDVVAEVYAQKIQRTKDKKAQRQAGASDETAAGCCFMQWASSLFNRRRQRNQADQSILPPSGDQQHHRSELHA” here?
Answer: not soluble

Question: Which “soluble on expression in E. coli” value does the source give for “MSLQNTLGHRLVVGERQLLRFPAQQRSAAGDRLHAPSVYRRACIASLRSRQACYRHARRRCRQQEGAAMTGINRRELLRGMLASGVRAALPAGAAGALLPGSADAAPAAAKDATPLAPLGDASLAPRERLLFDFGWRFHPGHASDPSRDFEFGTFQRTFAKAGKDTATAAQLAFDDSNWQQVDLPHDWAVTLPFRPEPISASMTEEDPAAAHGYKALGTSFPENSVGWYRRMLQIPASDLGKRICLVFDGVFRDCVVFCNGHIVGRNASGYCGFEVDLSEVLDYGKPNLIVVRVDATLGEGWFYEGAGIYRHLWLQKTDPLHVPQHGVFVRSSVQGDTATAQLSTEVRNDGTASRQCVVQARITAPYGRIVAQAASAAVTVAPGQVQVVEQTVPLGQAALWSIDTPQLYTLTTSVHSAGVAVDALVTPFGVRSIAFDAQRGFLLNGAPLKLHGTNNHQDHAGVGTAIPDALHAWRLRQLKSMGCNAYRSSHNPATPELLALCDRLGMFVIEETRRMSTDPEAMAELETMVRRGRNHPSVILWSLGNEEPQQVTERGARIVTRMQQRVRQLDPTRPTTFAMDKGFGDGVGQVVDVVGFNYRTSQMDGFHAQYPNIPIYGSETGSTVSVRGNYQRDDTRGYTRAYDTDHPWWASTAEAWWSYVAQRPYIAGGFIWTGFDYRGEPTPYNRWPNVGSQFGVLDSCGFPKDNYWYYRAQWTSEPVLHLFPHWNWDGLLQPDDKGRVEVWCHSNLEAVELLVNGVSQGLQQVPAYGHVEWRVAYAPGVIEARGYRGGKLVLTERRETVGKPAAIRLSCDRSALRADAEDVAVVKVEIVDAQGRLVPNADHLVHLVLRGPARLIGVGNGDPSSHEDDKAPQRKAFNGLCMALLRSTRSSGQILLQATAPGLTSAALHLQAATSAEGHHHHHH” here?
Answer: soluble

Question: Which “soluble on expression in E. coli” value does the source give for “MNLKQLEVFLAVAESGSFSRGAEATFLTQSTVSQHIAALESEVGVRLLDRTSRGALLTEGGKILLEHARKVVAGSREISKVMRRFRGLEEAELRIGGSTIPADYMIPAMLASFLGRHPGVQVTLLQGDSRDILDRIEREDAEVGIIGSRFDEEGFTFTPLGRDEIRLIAAPDHPLAGTGAVPLAELANHGFVFRELGSGTAKSVAEALAGAGLPAEKLHVRACLGSNEAVKQAVAAGLGLSFVSELSVRKELARGELVELPVEGLTIARTFYLVARTGRELSPPAVAFIGELTGTRLA” here?
Answer: not soluble

Question: With “MSSPKVGFVSLGRPKALVDSERILTQLRTEGYEVTPEYNDADVVVVNTCGFIDSAKAESLEAIGEAIAENGKVIVTGCMGVEESVIRQVHPSVLAVTGPQQYEEVVRAVHGVAPPRQDHNPYLDLVPPQGVKLTPRHYAYLKISEGCNHRCSFCIIPSMRGDLVSRPVGDVLSEAERLVRAGVKELLVISQDTSAYGVDIKYRSGFWNGRPVKTRMTELCAALSELGVWTRLHYVYPYPHVDEVIGLMADGKVLPYLDIPFQHASPRILRAMKRPAFEDKTLARIKRWREECPDLTLRSTFIVGFPGETEEDFQYLLDWMSEAQLDRVGCFQYSPVEGAPANTLDNPVPDEVKQERWERFMEHQQAISTARLSTRVGREIDVLIDSVDEEGAVGRSSADAPEIDGCVYVDSEQPLKAGDMVRVRVTDSDEYDLWGERIALEHHHHHH” as the sequence, how does the “soluble on expression in E. coli” value read?
Answer: soluble

Question: With “MAYIQLEPLNEGFLSRISGLLLCRWTCRHCCQKCYESSCCQSSEDEVEILGPFPAQTPPWLMASRSSDKDGDSVHTASEVPLTPRTNSPDGRRSSSDTSKSTYSLTRRISSLESRRPSSPLIDIKPIEFGVLSAKKEPIQPSVLRRTYNPDDYFRKFEPHLYSLDSNSDDVDSLTDEEILSKYQLGMLHFSTQYDLLHNHLTVRVIEARDLPPPISHDGSRQDMAHSNPYVKICLLPDQKNSKQTGVKRKTQKPVFEERYTFEIPFLEAQRRTLLLTVVDFDKFSRHCVIGKVSVPLCEVDLVKGGHWWKALIPSSQNEVELGELLLSLNYLPSAGRLNVDVIRAKQLLQTDVSQGSDPFVKIQLVHGLKLVKTKKTSFLRGTIDPFYNESFSFKVPQEELENASLVFTVFGHNMKSSNDFIGRIVIGQYSSGPSETNHWRRMLNTHRTAVEQWHSLRSRAECDRVSPASLEVT” as the sequence, how does the “soluble on expression in E. coli” value read?
Answer: soluble

Question: Which “soluble on expression in E. coli” value does the source give for “MSDTPQAILLMGPTASGKTGLALELARRFPVEIVSVDSALVYRDMDIGTAKPTAEEMAACPHHLIDVISPLQSYSAAQFHADANRLIADIQARGKLPLLVGGTMLYYKALLEGLSDLPQADAALRAELDADAALLGWPAMHARLAELDPATASRLNPNDSQRIHRALEVCLLSGKPMSELIAQGKEAAAGFRFLPLALVPRERGWLHARIAERFRIMLEQGFLDEVSRLRAKYPELTLNLPSMRCVGYRQAWEHQDGLYGHDEFVERGVAATRQLAKRQLTWTRSLDAIPVDAQRDGLAGLLGDAVDDFLAGRPPAESLRYAGDF” here?
Answer: soluble

Question: Which “soluble on expression in E. coli” value does the source give for “MPKAKGKTRRQKFGYSVNRKRLNRNARRKAARGIECSHIRHAWDHAKSVRQNLAEMGLAVDPNRAVPLRKRKVKAMEVDIEERPKELVRKPYVLNDLEAEASLPEKKGNTLSRDLIDYVRYMVENHGEDYKAMARDEKNYYQDTPKQIRSKINVYKRFYPAEWQDFLDSLQKRKMEVELEHHHHHH” here?
Answer: not soluble

Question: With “MMVYQRPVFTVISLLRIRNREEAKLVLIGAVVVYRNFVEQTLADAQKNWVKSLVLYDDPGDAVTGILTWFSRYACLHGPRLGPLDTIAVNDNPLYIYCPRRKLEEYAKERIVSFHSEIGSVVCSMSPFDAGVTREKVRYGHNLISPGSCLLPDALEAYVAFLPSKSFLKLPYSVYEVHNDRYVHKFFALLPGSRFHFEVVAVGLAYPAAKKRPSGLGILRCCFTGKTNTCLLEHHHHHH” as the sequence, how does the “soluble on expression in E. coli” value read?
Answer: soluble

Question: For “MLRKQVYLTPEEEAKLKRLARATGRTEAEILRLALDLLPEEEAPLLLALAEEGLLEVPERAVTPARMEEAYRRYLDRVAGRGLGLSKAVLADREGR”, which “soluble on expression in E. coli” value is on record?
Answer: soluble

Question: With “MGSDKIHHHHHHMETIHFTKVHGSQNDFFLVDEEENHITEWSDEKRANFAIKLCDRKHSLGGADGILYVTKSSEVGPIGQMRVVNSDGSIASMCGNGLRTVARYLLEKHALTDAKVETMKAILDVKKATSLGFDIPTYQVEISPVKFAAETLPMHVGVEKLFNQVIPELDAELAFSAVSVPNPHLITFVDQAVLDSNKQEKLASYLNSENPYFPDGVNVSFVKRLSDDAIYVRTFERGVGFTNACGTAMSACSLIKKMLDNNILETPLNVYNDGGRVQVTAKKDAAGEISLQLIGNATFVSKGSVRYENDIVTELTNEATAEQAQYQALVKEVKEFLKTTE” as the sequence, how does the “soluble on expression in E. coli” value read?
Answer: not soluble

Question: Which “soluble on expression in E. coli” value does the source give for “MGHHHHHHSHMTDCEFGYIYRLAQDYLQCVLQIPQPGSGPSKTSRVLQNVAFSVQKEVEKNLKSCLDNVNVVSVDTARTLFNQVMEKEFEDGIINWGRIVTIFAFEGILIKKLLRQQIAPDVDTYKEISYFVAEFIMNNTGEWIRQNGGWENGFVKKFEPKSGWMTFLEVTGKICEMLSLLKQYC” here?
Answer: not soluble

Question: For “MIILQGNKLERSFSGDVLFQNISLQVDERDRIALVGPNGAGKSTLLKLLVGEETPTSGEVNTKKDLTLSYLAQNSRFESDQTIYEEMLKVFEALRQDEKRLRQMEMDMATVSGQVLTRLMTDYDLLTEHFRQQGGFTYESDIKAILNGFKFDESMWQMTIAELSGGQNTRLALAKMLLEKPELLVLDEPTNHLDIETIAWLENYLANYQGALIIVSHDRYFLDKVATVTLDLTPNGLDRYSGNYSRFMALKAEKLVAEEKQFDKQQKEIAKLEDFVQKNIVRASTTKRAQARRKQLEKIERLDKPTGGRKSAHMTFHAEKPSGNVVLRVEEAAIGYGDQVLSEPINVDINKLDAIAVVGPNGIGKSTLIKSIIGQLPLLKGQLKYGANVETGYYDQTQSHLTSSNTVLEELWQDFSTTPEVDIRNRLGAFLFSGDDVKKSVAMLSGGEKARLLLAKLSMENNNFLVLDEPTNHLDIDSKEVLENALIDFDGTLLFVSHDRYFINRLATKVLEITENGSTLYLGDYDYYLEKKAELEELARLAAGETVEETKEASATDYQLQKANQKERRRLTRRYEEIEARLETIEERIGAIQEDMHASNDTAQLIAWQKEWDQLDQEQEALMEEWETIAEQIES”, which “soluble on expression in E. coli” value is on record?
Answer: not soluble

Question: Which “soluble on expression in E. coli” value does the source give for “MISAHCNLRLLCSSDSSASASQVAGTTEVVENLVTNDNSPNIPEAIDRLFSDIANINRESMAEIADIQIEEMAVNLWNWALTIGGGWLVNEEQKIRLHYVACKLLSMCEASFASEQSIQRLIMMNMRIGKEWLDAGNFLIADECFQAAVASLEQLYVKLIQRSSPEADLTMEKITVESDHFRVLSYQAESAVAQGDFQRASMCVLQCKDMLMRLPQMTSSLHHLCYNFGVETQKNNKYEESSFWLSQSYDIGKMDKKSTGPEMLAKVLRLLATNYLDWDDTKYYDKALNAVNLANKEHLSSPGLFLKMKILLKGETSNEELLEAVMEILHLDMPLDFCLNIAKLLMDHERESVGFHFLTIIHERFKSSENIGKVLILHTDMLLQRKEELLAKEKIEEIFLAHQTGRQLTAESMNWLHNILWRQAASSFEVQNYTDALQWYYYSLRFYSTDEMDLDFTKLQRNMACCYLNLQQLDKAKEAVAEAERHDPRNVFTQFYIFKIAVIEGNSERALQAIITLENILTDEESEDNDLVAERGSPTMLLSLAAQFALENGQQIVAEKALEYLAQHSEDQEQVLTAVKCLLRFLLPKIAEMPESEDKKKEMDRLLTCLNRAFVKLSQPFGEEALSLESRANEAQWFRKTAWNLAVQCDKDPVMMREFFILSYKMSQFCPSDQVILIARKTCLLMAVAVDLEQGRKASTAFEQTMFLSRALEEIQTCNDIHNFLKQTGTFSNDSCEKLLLLYEFEVRAKLNDPLLESFLESVWELPHLETKTFETIAIIAMEKPAHYPLIALKALKKALLLYKKEEPIDISQYSKCMHNLVNLSVPDGASNVELCPLEEVWGYFEDALSHISRTKDYPEMEILWLMVKSWNTGVLMFSRSKYASAEKWCGLALRFLNHLTSFKESYETQMNMLYSQLVEALSNNKGPVFHEHGYWSKSD” here?
Answer: not soluble

Question: For “SNTPRLSLRTIEPTDYPELAELMDLVFPDVGGSWPRLTIMDLIHQFPDGQICIEDNGKIVGAALTIKVDYNRFSLPHLYTDIITENNVIQNQVTGDAMYGLDVFVHPDYRGLRLGRRLYDARKELCRSKNFKAILAGGRIPNYHQYADELSVAEYIDKVKRRELHDPILSFQLANDFDVKRIMRGYLP”, which “soluble on expression in E. coli” value is on record?
Answer: not soluble

Question: Which “soluble on expression in E. coli” value does the source give for “MKIAGFDIGGANTDMAIIDFGSDGDMKEVRVDFRYLPMWLRKDELAETLLEMVGDDLHELEGVGVCMTAELVDAYPSKAAGVADIIDRVEGAFDVPVAYVSLSGMVDASEALADPMNIAAANWVATSQIASAMSSDCIMVDVGSTTTDIIPVKDGFEAARGRNDLERLSTGELVYTGTLRTNVATIVDRVPLQDKWFRVSSELFAVTADVHRVLGNIGESDYTCSTPDGAGKSVEECMLRIARVLCADLELLSPGDVLDVAEYIYHQQILKIAEGIAEVSEREGLEEVVTTGLGMKILAQRAAEVLELECRTMDEFLTEEECVVAPAVGTALLMEDYLQAQGLLEHHHHHH” here?
Answer: not soluble

Question: With “MISNQILQNTIEGIKSISRVDLHVADTDGKIIASTSQLGDEFGHAIISFVNSPADSQSVQEYQFFKVYDESQLELILIAQGTSDDVFMVGKMAAFQIQNLLVAYKERFDKDNFIKNLLLDNLLLVDIYNRSKKLYIDVDARRCVCIIETKNEKDSVALETVRTLFSGNKKDFITAVDEKSIILVKELEEKQGYEDIEKIARTIVDMLNTEAMVKATVAYGTIVKEIKEVSRSYKEARMALDVGKIFFSTKNVIAYNNLGIGRLIYQLPIPLCKMFISEIFEGKSPDEFDEETLTTINKFFENSLNVSETSRQLYIHRNTLVYRLDKLQKSTGLDLRVFEDAITFKIALMVVKYMKYMENTDF” as the sequence, how does the “soluble on expression in E. coli” value read?
Answer: not soluble
